Reference: US20260250366A1 (RIN INSTITUTE, published 2026)

Assays:
AMU1114 = molecular target: T1, AMU1114 (Homo sapiens (Human), UniProt P0DOX7 1-214); assay: assay not named in the sentence (ELISA of FIG. 5 presumably)
T1 construct: Complex of a fusion heavy chain (Fab region linked to a prourokinase mutant) and an antibody light chain; F396 of the heavy chain corresponds to F157 of urokinase
Procedure: (§1) The concentration of each of the human and mouse urokinase receptors was adjusted with PBS to 1 μg/mL. The resultant solution was dispensed in the wells of a 96-well plate in a volume of 50 μL/well, allowed to stand still at room temperature for 90 minutes to immobilize the receptor. To the plate having the receptor immobilized thereon, TBS-T containing 1% BSA was dispensed in a volume of 300 μL/well. The plate was allowed to stand still at room temperature for 60 minutes to block the plate. To the plate blocked, the sample (mutant) adjusted in concentration to 1000 ng/mL, 111.1 ng/mL or 12.3 ng/mL was added in a volume of 50 μL/well and allowed to react at room temperature for 60 minutes. After washing with TBS-T, HRP-conjugated anti-human Kappa chain antibody (Bethyl) diluted with 1% BSA-containing TBS-T to 1/50,000 fold was dispensed in a volume of 50 μL/well and allowed to react at room temperature for 60 minutes. After washing, a TMB (3,3′,5,5′-tetramethylbenzidine) coloring reagent was allowed to react for 15 minutes. The reaction was terminated with 2N H₂SO₄ (30 μL/well). Absorbance at 450 nm was measured.

[1] = molecular target: AMU1114 (Δ22-28, F157E) mutant (Homo sapiens (Human), UniProt P0DOX7 1-214); assay: ELISA, receptor immobilized, detection with HRP anti-human Kappa chain antibody; compared with PBS
AMU1114 (Δ22-28, F157E) mutant, sequence (P0DOX7 other isoform, or with tags, fused parts or gaps F157E F157E limits assumed, chain 2 of 2, other chains not shown): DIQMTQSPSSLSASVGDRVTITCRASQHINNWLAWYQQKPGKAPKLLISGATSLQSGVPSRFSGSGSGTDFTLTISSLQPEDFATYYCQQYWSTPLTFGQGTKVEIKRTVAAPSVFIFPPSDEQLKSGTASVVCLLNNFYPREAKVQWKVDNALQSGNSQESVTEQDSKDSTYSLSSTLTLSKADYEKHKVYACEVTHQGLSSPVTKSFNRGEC
Procedure: as §1

T1 sequence (P0DOX7 other isoform, or with tags, fused parts or gaps limits assumed, chain 2 of 2, other chains not shown): as the sequence (P0DOX7 other isoform, or with tags, fused parts or gaps F157E F157E limits assumed, chain 2 of 2, other chains not shown) above

binding result (AMU1114): no binding | binding result [1]: no binding
B1: mouse urokinase receptor (receptor)
chain: LQCMQCESNQSCLVEECALGQDLCRTTVLREWQDDRELEVVTRGCAHSEKTNRTMSYRMGSMIISLTETVCATNLCNRPRPGARGRAFPQGRYLECASCTSLDQSCERGREQSLQCRYPTEHCIEVVTLQSTERSLKDEDYTRGCGSLPGCPGTAGFHSNQTFHFLKCCNYTHCNGGPVLDLQSFPPNGFQCYSCEGNNTLGCSSEEASLINCRGPMNQCLVATGLDVLGNRSYTVRGCATASWCQGSHVADSFPTHLNVSVSCCHGSGCNSPTGHHHHHH
notes: Immobilized on the plate at 1 µg/mL
